In patent US10772972B2, “Anti-STEAP2 antibody drug conjugates, and compositions and uses thereof” (Regeneron Pharmaceuticals, Inc., priority 2016, dated 2020):
Changes are numbered by the printed parent chain. Values belong to the molecule of their own block, whether it stands above or below them.

Assays:
human CD3 (Jurkat cells) = test: FACS titration of anti-CD3 antibodies on Jurkat cells; type: binding; conditions: anti-CD3 antibody
Text: See, e.g. FACS binding experiments outlined in Example 12 and in PCT/US2016/044732 filed Jul. 29, 2016.

cynomolgus T cells = test: FACS binding titration of STEAP2xCD3 bispecifics on cynomolgus T cells; conditions: 66.6 nM to 0.001 nM, 30 minutes at 4° C.
Protocol: (§1) FACS Binding Titration on Jurkat Cells, PC3_STEAP2/1 Cells and cynomolgus T Cells: Flow cytometric analysis was utilized to determine binding of STEAP2×CD3 bispecific antibodies to Jurkat, PC3_STEAP2/1 chimeric and cynomolgus T cells, followed by detection with a phycoerythrin (PE)-labeled anti-human IgG antibody. Briefly, 2×10^5 cells/well were incubated for 30 minutes at 4° C. with a serial dilution of STEAP2×CD3 bispecific antibodies or control antibody (a human IgG1 antibody that binds a feline antigen with no cross-reactivity to STEAP2 or human or cynomolgus CD3) ranging from 66.6 nM to 0.001 nM. After incubation, the cells were washed twice with cold PBS containing 1% filtered FBS and a PE-conjugated anti-human secondary antibody was added to the cells and incubated for an additional 30 minutes. Wells containing no antibody or secondary antibody only were used as a control. After incubation, cells were washed, re-suspended in 200 μL cold PBS containing 1% filtered FBS and analyzed by flow cytometry on a BD FACS Canto II.

[1] = system: Jurkat cells (express human CD3); test: FACS binding titration of STEAP2xCD3 bispecifics on Jurkat cells; conditions: 66.6 nM to 0.001 nM, 30 minutes at 4° C.
Protocol: as §1

[2] = system: PC3_STEAP2/1 cells (PC3 engineered to express a STEAP2/1 chimeric construct); test: FACS binding titration of STEAP2xCD3 bispecifics on PC3_STEAP2/1 cells; parameters: species or system human; conditions: 66.6 nM to 0.001 nM, 30 minutes at 4° C.
Protocol: as §1

human PBMCs = test: T cell proliferation assay, human PBMC; type: cell-based; conditions: with anti-CD28 200 ng/mL, 72 hours; read-out: hPBMC Proliferation [M] (EC50)
Protocol: (§2) Thawed human or freshly isolated monkey PBMCs (50,000 cells/well) were incubated with 3-fold (human, concentration range: 5E-10M to 2.82E-15M; cynomolgus, concentration range: 1E-09M to 4.57E-13M) serial dilutions of STEAP2×CD3 bispecifics or isotype control in complete medium (RPMI supplemented with 10% FBS, 100 U/mL penicillin, 100 μg/mL streptomycin, 292 μg/mL L-glutamine) and a fixed concentration (human: 200 ng/mL, cyno: 500 ng/mL) of a commercial anti-CD28 antibody (Biolegend, Catalog #302914) in white flat bottom 96-well plates for 72 hours at 37° C. Isolated monkey PBMCs were from two donors (identified as mk8781M or mk9381M). Following incubation, CellTiter Glo® (Promega, Cat #7573) was added and luminescence, as readout for cell viability, was measured using a VICTOR X5 multi-label plate reader. Cell titer was calculated by dividing the luminescence of stimulated cells by the baseline luminescence of unstimulated cells.
All αSTEAP2×αCD3 bispecific antibodies induce human PBMC proliferation in the presence of a co-stimulatory anti-CD28 antibody (See Table 20 and FIG. 9). PBMCs were incubated with a serial dilution of bispecific antibodies or the control antibody and a fixed concentration of anti-CD28 for 72 hours, and cell viability was measured in a luminescence assay to detect live cells. […]

monkey PBMCs = test: T cell proliferation assay, cynomolgus PBMC; type: cell-based; conditions: donor mk8781M; anti-CD28 500 ng/mL, 72 hours; read-out: Cyno PBMC Proliferation [M] (donor)
Protocol: as §2

EC50, FACS titration of Jurkat cells (human CD3) (human CD3 (Jurkat cells)): retained their binding affinity
B1: CD3-VH-G: anti-CD3 antibody engineered from CD3-VH-P to contain only germline frameworks, HCVR SEQ ID NO: 1730 (antibody, V domains shown)
VH: EVQLVESGGGLVQPGRSLRLSCAASGFTFDDYSMHWVRQAPGKGLEWVSGISWNSGSKGYADSVKGRFTISRDNAKNSLYLQMNSLRAEDTALYYCAKYGSGYGKFYHYGLDVWGQGTTVTVSS
VL: DIQMTQSPSSLSASVGDSVTITCRASQSINNYLNWYQQKPGKAPKLLIYTASSLLSGVPSRFSGSGSGTDFTLTISGLHPEDFATYFCQQSFSTPPITFGQGTRLDIK

Cynomolgus T cells EC50 [M] (cynomolgus T cells): Very Weak
EC50 [1]: 13600 pM
FACS PC3_STEAP2/1 EC50 [M] [2]: No Binding
B2: BSSTEAP2/CD3-010: STEAP2×CD3 bispecific: anti-STEAP2 H1H7809N (SEQ 330), anti-CD3 H1H7198P (SEQ 1466), common LCVR of H1H7809N (antibody, V domains shown)
VH 1: QVQLVESGGGVVQPGRSLGLSCAASGFTFSSYGMHWVRQAPGKGLEWVAVIWYDGSNKYYVDSVKGRFTISRDNSKNTLYLQMNSLRAEDTAVYYCAREGLRFLENYYYYYGMDVWGQGTTVTVSS
VH 2: B1 VH with D30A, S33T, A40V, G50D, G59D, S78F, A97V, H108F, G110A, L111M
VL: EIVLTQSPGTLSLSPGERATLSCRASQSISSTYLAWYQQRPGQAPRLLIYGASSRATGIPDRFSGSGSGTDFTLTISRLEPEDFAVYYCQQYGTSPYTFGQGTKLEIK
EC50 (human PBMCs): 6.55e-12 M

Cynomolgus T cells EC50 [M] (cynomolgus T cells): No Binding
FACS PC3_STEAP2/1 EC50 [M] [2]: No Binding
B3: BSSTEAP2/CD3-011: STEAP2×CD3 bispecific: anti-STEAP2 H1H7809N (SEQ 330), anti-CD3 H1H7203P (SEQ 1474), common LCVR of H1H7809N (antibody, V domains shown)
VH 1: B2 VH 1
VH 2: EVQLVQSGGGLVQPGRSLRLSCAASGFTFADYTMHWVRQTPGKGLEWVSGISWNSGSKDYADSVKGRFTISRDNAKNSLYLQMNSLRTEDTALYYCAKYGSGYGRYFFYAMDVWGQGTTVTVSS
VL: B2 VL
EC50 (monkey PBMCs): 3.6e-12 M
